Patent US20200399375A1 (SUZHOU SUNCADIA BIOPHARMACEUTICALS, published 2020)

B1: chimeric antibody of 24D5 with a back-mutation from serine to cysteine at position 96 (antibody, V domains shown)
VH: QVQLQQPGAELVKPGASVKLSCKASGYTFTSYWMHWVQQRPGQGLEWIGRIHPNSGGTSYNEKFKNRATLTVDKSSSTAYMQFSSLTSEDSAVYYCARGGSSYDYFDYWGQGTTLTVSS
VL: DIVLTQSPASLAVSLGQRATISCRASESVSIHGTHLMHWYQQKPGQPPKLLIYAASNLESGVPARFSGSGSETDFTLNIHPVEEEDATTYFCQQSFEDPLTFGAGTKLELK
notes: it is put on the VH because the printed VH has S at 96 and C at 22 (the disulfide partner named); also called 24D5 chimeric S96C
B2: murine antibody of hybridoma clone 9-2 (antibody, V domains shown)
VH: EVQLQESGPGLAKPSQTLSLTCSVAGYSITNDYWNWIRKFPGNKLEYMGYISYTGSTYYNPSLKSRLSITRDTSKNQYYLQLNSVTAEDTAIYYCARSGGWLAPFDYWGRGTTLTVSS
VL: DIVMSQSPSSLVVSVGEKVIMSCKSSQSLFYRSNQKNSLAWYQQKPGQSPKLLIYGASTRESGVPDRFTGSGSGTDFTVTISSVKAEDLAVYYCQQYYGYPYTFGGGTKLEIK
notes: Mouse hybridoma antibody; also called hybridoma antibody 9-2; murine antibody 9-2
B3: 9-2 chimeric antibody (antibody, V domains shown)
VH: B2 VH
VL: B2 VL
notes: also called the chimeric antibody (of 9-2)
B4: HRP00049: 9-2(H2/L10) IgG4 (AA)(S228P) (antibody, V domains shown)
VH: QVQLQESGPGLVKPSQTLSLTCTVSGGSISNDYWTWIRQHPGKGLEYIGYISYTGSTYYNPSLKSRVTISRDTSKNQFSLKLSSVTAADTAVYYCARSGGWLAPFDYWGRGTLVTVSS
VL: DIVMTQSPDSLAVSLGERATINCKSSQSLFYHSNQKHSLAWYQQKPGQPPKLLIYGASTRESGVPDRFSGSGSGTDFTLTISSLQAEDVAVYYCQQYYGYPYTFGGGTKVEIKR
notes: kappa light chain; also called humanized antibody 9-2
B5: HRP00052: 24D5(GF) IgG4 (AA) (S228P) (antibody, V domains shown)
VH: QVQLVQSGAEVKKPGASVKVSCKASGYTFTSYWMHWVRQAPGQGLEWMGRIGPNSGFTSYNEKFKNRVTMTRDTSTSTVYMELSSLRSEDTAVYYCARGGSSYDYFDYWGQGTTVTVSS
VL: DIVLTQSPASLAVSPGQRATITCRASESVSIHGTHLMHWYQQKPGQPPKLLIYAASNLESGVPARFSGSGSGTDFTLTINPVEAEDTANYYCQQSFEDPLTFGQGTKLEIKR
notes: kappa light chain; also called 24D5 29H1 GF; humanized antibody 24D5

Legend:
[1] = target: T1, human PD-L1 antigen (huPD-L1-his, Sino biological, 10084-H08H-200) (human, UniProt Q9NZQ7 19-239); assay: affinity measurement; method and antigen not named in the sentence (PD-L1)
T1 construct: Bought protein; also called human PD-L1-his; not shown: His tag

[2] = target: T2, PD-L1 Fc fusion protein: PD-L1 (ECD)-Fc (human IgG1) (human); assay: hybridoma screening, binding ELISA on coated PD-L1(ECD)-Fc (Test 1)
T2 construct: Coated on the plate in Tests 1 to 3; also called huPD-L1-Fc; VKL-PD-L1(ECD)-Fc(human IgG1)
Procedure: On day 10-11 after fusion, an ELISA assay was performed on PD-L1 binding according to the density of the growing cells (see Test 1). For the positive cells detected in the ELISA assay (Test 1), blockade in PD-L1/PD-1 binding was detected via ELISA analysis (see Test 2). Medium in the positive wells was changed and the positive cells were expanded to a 24-well plate depending on cell density. After re-testing, the cells transferred into the 24-well plate were used for breed conservation and first sub-cloning. The positive cells during the first sub-clone screening (see Test 1) were used for breed conservation and subjected to a second sub-cloning. The positive cells during the second sub-cloning were (see Test 1) used for breed conservation and protein expression. Hybridoma cells having blocking effect on PD-L1 and PD-1 binding (see Test 2) were obtained by multiple cell fusions.
Microtitration plates were directly coated with 1 μg/ml ([…]) of PD-L1(ECD)-Fc(SEQ ID NO: 4) and incubated at 4° C. overnight. Then the plates were blocked with 150 μl/well of PBS containing 5% Skim Milk(BD, 232100) and incubated at 4° C. overnight. […] The reaction was stopped by the addition of 50 μl/well of 1M H₂SO₄ to each well and the OD value was read on an ELISA microplate reader (BMG Labtech, NOVOStar) at a wavelength of 450 nm.

[3] = target: T1, human PD-L1 antigen (huPD-L1-his, Sino …); assay: BIACORE (Test 4)
Excerpt: The anti-human capture antibody was covalently linked to the CM5 biochip (GE, BR-1000-12) according to the method described in the anti-human trapping kit (GE, BR-1008-39) instructions for affinity capturing the PD-L1 antibody of the present invention. Then, a series of concentrations of human PD-L1 antigen (Sino biological, 0084-H08H-200) were flowed through the surface of the biochip, and the reaction signal was detected in real time using a Biacore instrument (GE, BiacoreX100) to obtain the association and dissociation curves. Finally, the affinity values were obtained by fitting. After each cycle of dissociation was finished in the experiment, the biochip was washed and regenerated with regeneration solution in the anti-human capture kit (GE). The data obtained was analyzed by GE's BIA evaluation software using a 1:1(Langmuir) binding model. Ka (kon), kd (koff) and KD values were determined by the assay. The affinity of hybridoma antibodies and humanized antibodies has been summarized in other examples.

[4] = target: T2, PD-L1 Fc fusion protein: PD-L1 (ECD)-Fc …; assay: blocking ELISA, PD-L1(ECD)-Fc coated, competitor biotin-PD-1-Fc
Procedure: The dilution of biotin (Dojindo Chemical, LK03: 3 samples) and avidin (Sigma, S2438-250UG) was 6% BSA (diluted with PBS containing 0.1% Tween20), and PBS was used as coating solution. Microtitration plates were directly coated with 1 μg/ml ([…]) of PD-L1(ECD)-Fc(SEQ ID NO: 4) and incubated at 4° C. overnight. The plate was washed three times and was blocked for 2h at 37° C. with 3% BSA(diluted with PBS containing 0.1% Tween20). The plate was washed three times and 50 μl/well of cell supernatant was added to each well. Then 50 μl/well of bio-PD-1-Fc (biotin-labeled PD-1-Fc, SEQ ID NO: 5, 2 μg/ml, PD-1-FC was labeled according to the method of Dojindo Chemical Kits Biotin Labeling Kit-NH2, LK03: 3 samples) was added to each well, well-mixed by vortex, and incubated at 37° C. for 1 h. The plates were washed 6 times, followed by addition of 50 μl/well Streptavidin-Peroxidase Polymer (S2438-250UG, Sigma, which was diluted at a ratio of 1:400), and incubated on shaker for 50 min at room temperature. The plate was washed 6 times, and then I00 μl/well of TMB was added, and incubated for 5-10 min at 37° C. Then the reaction was terminated with addition of 100 μl/well of 1M H2SO₄. The absorbance value was read on microplate reader (BMG Labtech, NOVOStar) at 450 nm, and the IC₅₀ value for blocking the binding of PD-1 antibody to ligand PD-L1 was calculated.

[5] = target: T2, PD-L1 Fc fusion protein: PD-L1 (ECD)-Fc …; assay: blocking ELISA, PD-L1(ECD)-Fc coated, competitor biotin-human B7.1
[6] = target: T1, human PD-L1 antigen (huPD-L1-his, Sino …); assay: Biacore X100, antibody captured by anti-human antibody on CM5, antigen in flow, 1:1 Langmuir
[7] = target: T3, cynomolgus PD-L1 antigen (Cyno PD-L-his, Sino 90251-C08H-100) (cynomolgus, UniProt G7PSE7 19-239); assay: as above
T3 construct: Bought protein; also called CynoPD-L1-his; not shown: His tag

Binder	IC50 [4]	IC50 [5]	Kd [6]	koff [6]	kon [6]	Kd [7]	koff [7]	kon [7]	other results
B1	–	–	–	–	–	–	–	–	binding result [1]: binds
B2	–	–	–	–	–	–	–	–	binding result [2]: binds
B3	–	–	–	–	–	–	–	–	binding result [3]: binds
B4	0.174 µg/mL	0.113 µg/mL	0.17 nM	0.000162 s⁻¹	952000 M⁻¹ s⁻¹	0.172 nM	0.000167 s⁻¹	974000 M⁻¹ s⁻¹	–
B5	0.114 µg/mL	0.0696 µg/mL	0.057 nM	0.000101 s⁻¹	1.77e+06 M⁻¹ s⁻¹	0.0579 nM	0.000106 s⁻¹	1.84e+06 M⁻¹ s⁻¹	–
